Assay results reported in paper PMC11840039.
Where two headings read alike, the source gives them in different places.

Legend:
Test in all cases: cryo-EM structure
[1] = molecular target: Human Slo1 (hSlo1), BK channel α subunit, residues 1-1056 (human)
[2] = molecular target: Human Slo1 (hSlo1), BK channel α subunit, residues 1-1056 (human); remark: listed apart in the source
[3] = molecular target: Human Slo1 (hSlo1), BK channel α subunit, residues 1-1056 (human); remark: listed apart in the source
[4] = molecular target: Human Slo1 (hSlo1), BK channel α subunit, residues 1-1056 (human); remark: listed apart in the source

Measured: stoichiometry N

Human Slo1 (hSlo1), BK channel α subunit, residues 1-1056 (natural protein)
4: all assays above
